Test system: MS2 coat protein
Assay: apparent KD of MS2 coat protein; designed switch direction (-1 OFF switch, 1 ON switch): 1; higher = weaker reporter binding
Summary of the method: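 Designed RNA switches sharing common flanks were transcribed on Illumina chips by stalled E. coli RNA polymerase. They were titrated with SNAP-549-labelled MS2 coat protein, from 0.7 or 1.5 nM doubling to 3 µM, in Tris-HCl pH 7.5 buffer with KCl, MgCl2, BSA, DTT, tRNA and Tween-20. Titrations ran without input, with 200 uM small-molecule ligand, or with an oligonucleotide input. The apparent KD of each design is the median over its clusters, after curve-fitting of normalised cluster fluorescence.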

[1] = input ligand: microRNA oligo, concentration not stated
[2] = Eterna round: R95, input ligand: microRNA oligo, concentration not stated
[3] = Eterna round: R95, input ligand: FMN 200 uM
[4] = Eterna round: R95, input ligand: none

GGAGCCGGCCUAGGAUAUUUCAUUAAAAUACAUGAGGAUCACCCAUGUAGGCCAGAAGGCCUUGGGAAGAAGGAGGUCGGCUCC [Loop Effect - U24,U29] (Eterna round: R96, puzzle: Same State NG 2)
apparent KD of MS2 coat protein (input ligand: FMN 200 uM): 9.56 nM
apparent KD of MS2 coat protein [1]: 17.6 nM
apparent KD of MS2 coat protein (input ligand: none): 23.1 nM

GGAGCCGGCCUAGGAUAUUUCAUUUUAAAACAUGAGGAUCACCCAUGUAGGCCAGAAGGCCUUGGGAAGAAGGAGGUCGGCUCC [Loop Effect - U24,U25,U26] (Eterna round: R96, puzzle: Same State NG 2)
apparent KD of MS2 coat protein (input ligand: FMN 200 uM): 17.4 nM
apparent KD of MS2 coat protein [1]: 33.2 nM
apparent KD of MS2 coat protein (input ligand: none): 69.3 nM

GGAGGACAUGAGGAUCACCCAUGUGGAUGAACGCUAGGAUAUGCGUGCAGGAAGAGUGGAGCAGAAGGAGUGGGAU [JR_SS1_Sub047] (puzzle: Same State 1)
apparent KD of MS2 coat protein [2]: 19.1 nM

GGCCUCUGUCAAGGAUAUGCUACCGUUUCGGUAGCAGAAGGUGAUCACAUGCGGUUCGCCCAUGUUUAGGCCAACAGGCCCGCC (Eterna round: R96, puzzle: Same State NG 1)
apparent KD of MS2 coat protein (input ligand: FMN 200 uM): 25.1 nM
apparent KD of MS2 coat protein [1]: 5.14 nM
apparent KD of MS2 coat protein (input ligand: none): 6.87 nM

GGCCUGAGUGAAGGAUAUGCUACCGUUUCGGUAGCAGAAGGUCAUCACAUGAGGAUGACCCAUGUUUACGCGAACACGCGCGCC (Eterna round: R96, puzzle: Same State NG 1)
apparent KD of MS2 coat protein (input ligand: FMN 200 uM): 45.9 nM
apparent KD of MS2 coat protein [1]: 27.2 nM
apparent KD of MS2 coat protein (input ligand: none): 28.2 nM

GGCCUGCCGCAAGGAUAUGAAGCUUUCGCUCCGUCAGAAGGUGCACAUGAGGAUCACCCAUGUAUGCAGGCCAAGAAAUAAACC [Tisoenat] (Eterna round: R96, puzzle: Same State NG 1)
apparent KD of MS2 coat protein (input ligand: FMN 200 uM): 13.2 nM
apparent KD of MS2 coat protein [1]: 25.9 nM
apparent KD of MS2 coat protein (input ligand: none): 37.1 nM

GGCUAUCGCAUUCGAUAGCUUAAGCAUGUACAUGAGGAUCACCCAUGUCAUGUACAGGCUUUUUGCUCGUACUUAUA (puzzle: Sensor for hsa-mir-208a)
apparent KD of MS2 coat protein [3]: 286 nM
apparent KD of MS2 coat protein [2]: 14.9 nM
apparent KD of MS2 coat protein [4]: 366 nM

GGCUAUCGCGUACGAUAGCUUAAGCAUGUACAUGAGGAUCACCCAUGUCAUGUACAAGCUUUUUGCUCGGCUUAUUG (puzzle: Sensor for hsa-mir-208a)
apparent KD of MS2 coat protein [3]: 119 nM
apparent KD of MS2 coat protein [2]: 14.3 nM
apparent KD of MS2 coat protein [4]: 132 nM

GGCUAUCGCGUACGAUAGCUUAGGCAUGUACAUGAGGAUCACCCAUGUCAUGUACAGGCUUUUUGCUCGUCUUAUUG [JL-shm-2.36 JL mod] (puzzle: Sensor for hsa-mir-208a)
apparent KD of MS2 coat protein [3]: 179 nM
apparent KD of MS2 coat protein [2]: 16.7 nM
apparent KD of MS2 coat protein [4]: 210 nM

GGGAAGAGGGACAAGGAUAUGUCAGGAGAGACAUGAGGAUCACCCAUGUGGAGGUUGGAGCAGAGACAGAAGGUGUACGGAGAGA [JR_SS2_Sub010] (puzzle: Same State 2)
apparent KD of MS2 coat protein [3]: 108 nM
apparent KD of MS2 coat protein [2]: 118 nM
apparent KD of MS2 coat protein [4]: 145 nM

GGGCCAGCUUUUGCUGGGCCUUCGCUUGCACAUGAGGAUCACCCAUGUCGUGUACACGCUUCCUGCCCGUCUUGUUU [Photon Torp-19] (puzzle: Sensor for hsa-mir-208a)
apparent KD of MS2 coat protein [3]: 24 nM
apparent KD of MS2 coat protein [2]: 15.3 nM
apparent KD of MS2 coat protein [4]: 24.6 nM

GGUAAGAAUUAAGGAUAUUGAAUACAUAUGUUUAACAUGAGGAUCACCCAUGUGGGUUGCGGUGUCGAGAAGGUAAAAUAAUAG [Mat - same State NG 2 - JL mod - D101] (Eterna round: R96, puzzle: Same State NG 2)
apparent KD of MS2 coat protein (input ligand: FMN 200 uM): 269 nM
apparent KD of MS2 coat protein [1]: 166 nM
apparent KD of MS2 coat protein (input ligand: none): 311 nM

GGUACCAUCACAGGAUAUGCUAUCCUUUGGGUAGCAGAAGGGUGAAACAUGAGGAUCACCCAUGUGGUGCCAGGGCGUGAGCCC [JL SSNG1 1.92] (Eterna round: R96, puzzle: Same State NG 1)
apparent KD of MS2 coat protein (input ligand: FMN 200 uM): 31.2 nM
apparent KD of MS2 coat protein [1]: 398 nM
apparent KD of MS2 coat protein (input ligand: none): 689 nM

GGUAUCGACGCAGGAUAUGCUAUCCUUUGGGUAGCAGAAGGGUGAACAUGAGGAUCACCCAUGUGGGUGCCAGGGCGUGAGCCC [JL SSNG1 1.82] (Eterna round: R96, puzzle: Same State NG 1)
apparent KD of MS2 coat protein (input ligand: FMN 200 uM): 694 nM
apparent KD of MS2 coat protein [1]: 18.2 nM
apparent KD of MS2 coat protein (input ligand: none): 86.8 nM

GGUAUUGACACAGGAUAUGCUUACGAAACGUAAGCAGAAGGGUGAACAUGAGGAUCACCCAUGUAGGUACCAGGGCGUGAGCCC [JL SSNG1 1.75] (Eterna round: R96, puzzle: Same State NG 1)
apparent KD of MS2 coat protein (input ligand: FMN 200 uM): 151 nM
apparent KD of MS2 coat protein [1]: 694 nM
apparent KD of MS2 coat protein (input ligand: none): 1470 nM

GGUCCAGCCUGAGCUGGACAAAAGCAUGUACAUGAGGAUCACCCAUGUCAUGUACAAGCUUUUUGCUCGUCAAAAGG [Mat - hsa-mir-208a - 102] (puzzle: Sensor for hsa-mir-208a)
apparent KD of MS2 coat protein [3]: 54.3 nM
apparent KD of MS2 coat protein [2]: 16 nM
apparent KD of MS2 coat protein [4]: 89.5 nM

GGUCCAGCCUGAGCUGGACAAAAGCAUGUACAUGAGGAUCACCCAUGUCAUGUACAAGCUUUUUGCUCGUCAUAAAG [Mat - hsa-mir-208a - 97] (puzzle: Sensor for hsa-mir-208a)
apparent KD of MS2 coat protein [3]: 228 nM
apparent KD of MS2 coat protein [2]: 18.2 nM
apparent KD of MS2 coat protein [4]: 334 nM

GGUCCAGCCUGAGCUGGACAAAAGCAUGUACAUGAGGAUCACCCAUGUCGUGUACAAGCUUUUUGCUCGUCUUAAAA [JL mod - D87 - 5] (puzzle: Sensor for hsa-mir-208a)
apparent KD of MS2 coat protein [3]: 215 nM
apparent KD of MS2 coat protein [2]: 13.9 nM
apparent KD of MS2 coat protein [4]: 296 nM

GGUCCAGCCUGAGCUGGACAGAAGCAUGUACAUGAGGAUCACCCAUGUCAUGUACAAGCUUUUUGCUCGUCUUAAAA [JL mod - D87 - 1] (puzzle: Sensor for hsa-mir-208a)
apparent KD of MS2 coat protein [3]: 439 nM
apparent KD of MS2 coat protein [2]: 13.2 nM
apparent KD of MS2 coat protein [4]: 498 nM

GGUCCAGCCUGAGCUGGACCACAGCAUGUACAUGAGGAUCACCCAUGUCAUGUACAAGCUUUUUGUUUAACUUAAAA [Sensorship 12 - Jieux - Sensor for hsa-mir-208a] (puzzle: Sensor for hsa-mir-208a)
apparent KD of MS2 coat protein [3]: 211 nM
apparent KD of MS2 coat protein [2]: 18.2 nM
apparent KD of MS2 coat protein [4]: 287 nM

GGUCCAGCCUGAGCUGGACCGAAGCGUGUACAUGAGGAUCACCCAUGUCAUGUACAGGCUUUUUGCUCGUCUUAUUG [JL-shm-2.11 JL Mod] (puzzle: Sensor for hsa-mir-208a)
apparent KD of MS2 coat protein [3]: 46.5 nM
apparent KD of MS2 coat protein [2]: 20.6 nM
apparent KD of MS2 coat protein [4]: 72.9 nM

From the supplement of paper PMC9170038
